What was measured:
[1] = system: 2-OG oxygenases; conditions: no test described in this patent; cited from earlier work
[2] = target: T1, FIH (Homo sapiens, UniProt Q9NWT6); test: FIH assay: decarboxylation of radiolabelled 2OG stimulated by substrate; format: biochemical; conditions: for Stimulation of decarboxylation of 2OG by substrate: recombinant FIH (>95% pure) incubated with each peptide; for % activity relative to GST HIF-1α 786-826: substrate incubated with FIH, ascorbate, 2OG, Fe, catalase, 50 mM Tris-HCl pH 7.5, 37° C., 20 minutes; for Activity + FIH (relative to synthetic HIF1alphaCAD): ankyrin peptide substrates, CAD standard peptide = 100
T1 construct: made in house
T1 sequence (Q9NWT6 whole entry): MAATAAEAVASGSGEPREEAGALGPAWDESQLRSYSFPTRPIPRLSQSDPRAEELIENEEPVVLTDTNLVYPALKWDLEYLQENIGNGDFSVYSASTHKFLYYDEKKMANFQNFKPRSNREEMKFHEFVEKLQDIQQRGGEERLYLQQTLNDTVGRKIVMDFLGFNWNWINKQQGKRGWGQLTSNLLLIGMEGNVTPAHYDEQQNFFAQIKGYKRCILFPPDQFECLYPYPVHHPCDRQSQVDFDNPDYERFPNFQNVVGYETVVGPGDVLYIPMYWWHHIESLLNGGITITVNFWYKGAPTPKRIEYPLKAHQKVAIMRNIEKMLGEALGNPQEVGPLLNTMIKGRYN
Experimental: The peptides shown in Table 1 were tested as potential substrates with purified FIH. The proposed sites of asparaginyl hydroxylation are highlighted in the Table.
In addition p105 ARD and IkappaB-alpha were also assayed as substrates. The substrates were assayed for decarboxylation of 2OG using radiolabelled 2OG as reported in Hewitson et al., J. Biol. Chem. (2002) 277 26351-26355. FIH was incubated with […] of each substrate together with ascorbate, 2OG, Fe and catalase in 50 mM Tris-HCl, pH 7.5 at 37° C. for 20 minutes.
Highly purified (>95% pure) recombinant FIH was incubated individually with each of the p105, IkappaB-alpha and FEM-1 peptides as potential substrates using an assay that measures decarboxylation of 2OG. […] Mutation of the proposed asparaginyl residue to be hydroxylated by FIH in p105 ARD to an alanine residue led to a substantial decrease in 2OG turnover. Incubation of FIH with IkappaB-alpha under standard assay conditions also stimulated turnover to a similar extent as observed for p105 ARD (Table 2).

[3] = target: T1, FIH; test: 2D-NMR of peptides after incubation with FIH; format: biochemical; conditions: standard assay conditions
Experimental: Both the FEM-1 and IkappaB-alpha peptides (2 mg) were incubated with FIH under standard assay conditions. Peptides were purified from the assay mixture using a Jupiter C4 HPLC column (15 cm×4.6 mm) with a linear gradient of 5-95% acetonitrile. Peptides were lyophilised and then redissolved in neat ^2H2O containing 1,4-dioxan as the internal chemical shift reference (^1H 3.750, ^13C 67.80 p.p.m.). NMR spectra were obtained using a Bruker Avance DRX500 equipped with an inverse-broadband pulsed-field gradient probe.
(§1) To check for direct peptide substrate hydroxylation, assay mixtures with each of the peptide substrates were analysed by both NMR and LC-MS.

[4] = target: T1, FIH; test: LC-MS analysis of peptide substrates after incubation with FIH; format: biochemical; conditions: after incubation with FIH under standard assay conditions
Experimental: A Jupiter C4 HPLC column (15 cm×4.6 mm) was used to purify the substrate peptides following incubation with FIH using a linear gradient of 5-95% acetonitrile/0.05% formic acid at a flow rate of 1 ml/min. The eluate from the column was analysed by a MICROMASS™ ZMD quadrupole mass spectrometer in positive mode.
as §1

[5] = system: 2-OG dependent oxygenases; test: Assays in which 3-fluoro 2-OG replaces 2-OG as co-substrate; format: biochemical; conditions: compound replaces 2-OG under analogous conditions
Description: [drawing 5] where each R^1, which are the same or different, is as defined above; R^11 represents OH or R^10NH where R^10 is HO, R^1CO or HOOC(X)x wherein R^11 is as defined above, x is 0 or 1 and X is R^1R^1C wherein each R^1, which are the same or different, is as defined above; or R^10 is an amino acid residue H2N(R^1R^1C)CO— wherein each R^1, which are the same or different, is as defined above; n is 1 or 2 and R^12 is H or straight or branched C1 to C6 alkyl; or a salt thereof. Typically X is CH2 or CHOH. Another aspect of the invention concerns analogues of 2-OG that act as improved (relative to 2-OG) co-substrates for the 2-OG dependent oxygenases. Such a compound is 3-fluoro 2-OG.

[6] = target: T1, FIH; test: Tryptic digest and MALDI-TOF mass spectrometry after incubation with FIH; format: biochemical; conditions: incubated with FIH under standard assay conditions, then tryptic digestion; linear and reflectron mode
Experimental: For in-gel digests, gel pieces were incubated with […] in 20 mM ammonium bicarbonate and incubated at 37° C. for 16 hrs. For solution digests, after incubation with FIH under standard assay conditions, a 25 μM sample of substrate was removed from the assay, combined with 2.5 μM trypsin in 25 mM ammonium bicarbonate and incubated at room temperature for 8 hours.
Both in vitro and in vivo produced p105 samples were analysed using an Ettan™ MALDI-ToF Pro mass spectrometer in reflectron mode (Amersham Biosciences) with ANG III and hACTH peptides as internal standards. Tryptic fragments of in vitro produced IkappaB-alpha were analysed using a MALDI-TOF 2T mass spectrometer (MICROMASS™) in reflectron mode using Substance P, hACTH and insulin (B chain, oxidized) calibration standards.
Recombinant IκB-α was incubated with FIH under standard assay conditions followed by tryptic digestion. The resulting tryptic fragments were analysed using both linear and reflectron mode MALDI-TOF mass spectrometry.

| Molecule | % activity relative to GST HIF-1α 786-826 [2] | Activity + FIH (relative to synthetic HIF1alphaCAD) [2] | Hydroxylation of peptide observed by LC-MS analysis [4] | also measured |
| --- | --- | --- | --- | --- |
| O=C(O)CC1CC(=O)N(O)C1=O (stereo not drawn) [Is52, (1-hydroxy-2,5-dioxo-pyrrolidin-3-yl) acetic acid] | – | – | – | Activity (in words) [1]: highly active |
| IkBa 21 mer: fragment of IκB-α, YLGIVELLVSLGADVNAQEPC (SEQ ID NO: 1) (listed as Homo sapiens) | 111% | – | hydroxylated | Stimulation of decarboxylation of 2OG by substrate [2]: roughly equivalent to HIF-1α CAD |
| CAD: HIF C-terminal transactivation domain standard peptide DESGLPQLTSYDCEVNAPI (SEQ ID NO: 11) (listed as Homo sapiens) [reference compound] | 75% | 100 | Yes | – |
| p19-INK-4d: fragment of P19-INK4d, FLDTLKVLVEHGADVNVPDG (SEQ ID NO: 13) (listed as Homo sapiens) | – | 124 | Yes | – |
| FGIF: fragment of FGIF, NTRVASFLLQHDADINAQTK (SEQ ID NO: 20) (listed as Homo sapiens) | – | 168 | Yes | – |
| O=C(O)CC(F)C(=O)C(=O)O (stereo not drawn) [3-fluoro 2-OG, 3-fluoro-2-oxoglutaric acid] | – | – | – | Level of asparagine hydroxylation as co-substrate compared with 2-OG [5]: higher level of asparagine hydroxylation |
| M110: fragment of M110, YTEVLKLLIQAGYDVNIKDY (SEQ ID NO: 19) (listed as Homo sapiens) | – | 122 | Yes | – |
| GABPbeta: fragment of GABPbeta, HASIVEVLLKHGADVNAKDM (SEQ ID NO: 14) (listed as Homo sapiens) | – | 107 | Yes | – |
| FEM-1 21 mer: fragment of FEM-1, NALVTKLLLDCGAEVNAVDNE (SEQ ID NO: 3) (listed as Homo sapiens) | 89% | – | hydroxylated | Stimulation of decarboxylation of 2OG by substrate [2]: roughly equivalent to HIF-1α CAD; 2D-NMR spectra of peptide after incubation with FIH [3]: consistent with asparaginyl hydroxylation |
| Tankyrase 1/2: fragment of Tankyrase, NLEVAEYLLEHGADVNAQDK (SEQ ID NO: 15) (listed as Homo sapiens) | – | 107 | Yes | – |
| IkappaB-alpha: recombinant IκB-α protein expressed in Escherichia coli from iκB-α/pGEX-2T construct (protein, UniProt P25963 1-317, looked up) NF-kappa-B inhibitor alpha: MFQAAERPQEWAMEGPRDGLKKERLLDDRHDSGLDSMKDEEYEQMVKELQEIRLEPQEVPRGSEPWKQQLTEDGDSFLHLAIIHEEKALTMEVIRQVKGDLAFLNFQNNLQQTPLHLAVITNQPEIAEALLGAGCDPELRDFRGNTPLHLACEQGCLASVGVLTQSCTTPHLHSILKATNYNGHTCLHLASIHGYLGIVELLVSLGADVNAQEPCNGRTALHLAVDLQNPDLVSLLLKCGADVNRVTYQGYSPYQLTWGRPSTRIQQQLGQLTLENLQMLPESEDEESYDTESEFTEFTEDELPYDDCVFGGQRLTL | 144% | – | – | Hydroxylation of tryptic fragment (MALDI-TOF) [6]: hydroxylation of the fragment |

More lines, main results first:

| % activity relative to GST HIF-1α 786-826 [2] | Activity + FIH (relative to synthetic HIF1alphaCAD) [2] | Hydroxylation of peptide observed by LC-MS analysis [4] | Molecule | also measured |
| --- | --- | --- | --- | --- |
| 100% | – | – | p105 21 mer: fragment of p105, SLPCLLLLVAAGADVNAQEQK (SEQ ID NO: 2) (listed as Homo sapiens) | Stimulation of decarboxylation of 2OG by substrate [2]: roughly equivalent to HIF-1α CAD; 2D-NMR spectra of peptide after incubation with FIH [3]: consistent with asparaginyl hydroxylation |
| – | 154 | Yes | Myotrophin: fragment of Myotrophin, QLEILEFLLLKGADINAPDK (SEQ ID NO: 18) (listed as Homo sapiens) | – |
| 100% | – | – | GST HIF-1α 786-826: glutathione-S-transferase tagged fragment of the HIF transactivation domains (residues 786-826) [reference compound] | – |
| – | 116 | Yes | Gankyrin/p28-II: fragment of Gankyrin/p28-II, RDEIVKALLGKGAQVNAVNQ (SEQ ID NO: 17) (listed as Homo sapiens) | – |
| – | 27.8 | Yes | 2-5A-d-R: fragment of 2-5A-d-R, VEVLKILLDEMGADVNACDN (SEQ ID NO: 16) (listed as Homo sapiens) | – |
| 129% | – | – | GST p105 ARD: ankyrin repeat domain of p105 (residues 537-809) downstream of glutathione S-transferase (protein, left off: a dimerising Fc or GST, ankyrin repeat domain of p105 (residues 537-809) downstream of glutathione S-transferase) AVQDENGDSVLHLAIIHLHSQLVRDLLEVTSGLISDDIINMRNDLYQTPLHLAVITKQEDVVEDLLRAGADLSLLDRLGNSVLHLAAKEGHDKVLSILLKHKKAALLLDHPNGDGLNAIHLAMMSNSLPCLLLLVAAGADVNAQEQKSGRTALHLAVEHDNISLAGCLLLEGDAHVDSTTYDGTTPLHIAAGRGSTRLAALLKAAGADPLVENFEPLYDLDDSWENAGEDEGVVPGTTPLDMATSWQVFDILNGKPYEPEFTSDDLLAQGDM | – |
| 164% | – | – | p105 ARD: ankyrin repeat domain of p105, amino acid residues 537-809 (SEQ ID NO: 22), GST tag cleaved (protein, listed as Homo sapiens) TAVQDENGDSVLHLAIIHLHSQLVRDLLEVTSGLISDDIINMRNDLYQTPLHLAVITKQEDVVEDLLRAGADLSLLDRLGNSVLHLAAKEGHDKVLSILLKHKKAALLLDHPNGDGLNAIHLAMMSNSLPCLLLLVAAGADVNAQEQKSGRTALHLAVEHDNISLAGCLLLEGDAHVDSTTYDGTTPLHIAAGRGSTRLAALLKAAGADPLVENFEPLYDLDDSWENAGEDEGVVPGTTPLDMATSWQVFDILNGKPYEPEFTSDDLLAQGDM | – |

Reference: patent publication US7638295B2, “Assays for identifying modulators of the hydroxylation of ankyrin repeat proteins by 2-oxoglutarate dependent oxygenase and methods of using the same” (priority 2004, dated 2009)
